Experimental data published in article PMC9768917.

Tests used:
[1] = molecular target: HALO-FhM28B (E413M) (Fasciola hepatica); assay: SEC; final purification step on a Superose 6 column, 20 mM MOPS, 150 mM NaCl, pH 7.4; elution peak compared with the expected dimeric mass
[2] = molecular target: HALO-FhM28B (Fasciola hepatica M28B metalloprotease, wild type, with N-terminal His-Strep-HALO tag) (Fasciola hepatica); assay: as above

Substance: HALO-FhM28B (E413M) (enzyme)
- stoichiometry N [1]: 2

Substance: HALO-FhM28B (Fasciola hepatica M28B metalloprotease, wild type, with N-terminal His-Strep-HALO tag) (enzyme)
- stoichiometry N [2]: 2
